Our source for the Brightness (integration, A.U.) of plate of HPF cells after exosome introduction; integrin β5-introduced exosome + anti-integrin β5 antibodies (6.1 × 10^6 without antibodies) values is US20250057776A1.

For the assay, the target named is human integrin β5 (human) (UniProt P18084). Description: cell-based or functional assay.
UniProt P18084, sequence (P18084 24-799 limits assumed): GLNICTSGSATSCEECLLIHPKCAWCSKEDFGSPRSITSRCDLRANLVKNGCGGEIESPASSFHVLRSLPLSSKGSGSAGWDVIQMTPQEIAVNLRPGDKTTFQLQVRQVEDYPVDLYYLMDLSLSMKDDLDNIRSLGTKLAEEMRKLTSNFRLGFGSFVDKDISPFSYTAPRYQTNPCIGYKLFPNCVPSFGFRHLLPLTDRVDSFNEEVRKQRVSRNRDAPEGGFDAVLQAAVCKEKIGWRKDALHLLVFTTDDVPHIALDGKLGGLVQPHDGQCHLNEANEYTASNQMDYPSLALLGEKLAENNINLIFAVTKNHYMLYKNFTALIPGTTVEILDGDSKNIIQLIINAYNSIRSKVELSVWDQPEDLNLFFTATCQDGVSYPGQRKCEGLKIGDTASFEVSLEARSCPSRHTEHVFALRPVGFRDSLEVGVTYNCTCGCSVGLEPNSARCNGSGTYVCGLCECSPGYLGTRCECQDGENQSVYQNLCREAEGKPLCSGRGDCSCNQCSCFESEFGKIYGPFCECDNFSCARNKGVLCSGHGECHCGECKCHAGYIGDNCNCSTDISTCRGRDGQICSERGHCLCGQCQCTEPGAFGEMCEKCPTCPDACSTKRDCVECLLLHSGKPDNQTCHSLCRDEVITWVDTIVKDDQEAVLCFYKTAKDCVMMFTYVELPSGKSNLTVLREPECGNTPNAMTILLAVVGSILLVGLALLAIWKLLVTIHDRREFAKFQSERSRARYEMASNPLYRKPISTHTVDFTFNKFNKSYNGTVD

For the substance “anti-integrin β5 antibodies (model number D24A5, rabbit monoclonal antibodies #3629, commercially available from Cell Signaling Technology) (antibody)”, the Brightness (integration, A.U.) of plate of HPF cells after exosome introduction; integrin β5-introduced exosome + anti-integrin β5 antibodies (6.1 × 10^6 without antibodies) came out at 5.1e+06 A.U.
